# Measurements as given in the supplement of paper PMC10567573.
# B1: SLC6A17 (parent)
# chain: HMFTPKLDKMLDPQVWREAATQVF
# B2: KRT15 (parent)
# chain: SNFHINVEESVDGQVVSSHKREI
# Variants of: B1
# Test: protein stability index of a GFP-peptide fusion (GPS, HEK-293T) (PSI 1-6); higher = more stable
# Conditions: c terminus: a fixed tail appended
# 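Note: lentivirally expressed fusions sorted by FACS into six bins by GFP to DsRed ratio, PSI derived from sequencing read proportions per bin multiplied by bin number.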
row,Variant,protein stability index
1,HMFTPKLDKMLDPQVWREAATQVR [F24R],2.85
2,HMFTPKLDKMLDPQVWREAATQVS [F24S],3.39
3,HMFTPKLDKMLDPQVWREAATQVT [F24T],2.38
4,HMFTPKLDKMLDPQVWREAATQVV [F24V],2.69
5,HMFTPKLDKMLDPQVWREAATQVY [F24Y],1.88

# Variants of: B2
# Test: as above
# Conditions: c terminus: native
row,Variant,protein stability index
1,SNFHINVEEYVDGQVVSSHKREI [S10Y],2.62
2,SNFHINVEESVCGQVVSSHKREI [D12C],3.28
3,SNFHINVEESVDNQVVSSHKREI [G13N],2.3
4,SNFHINVEESMDGQVVSSHKREI [V11M],1.85
5,SNFHITVEESVDGQVVSSHKREI [N6T],2.42
6,SNFHINVEESVSGQVVSSHKREI [D12S],2.07
7,SNFHWNVEESVDGQVVSSHKREI [I5W],1.63
8,SNFHINVEESVDGQVVVSHKREI [S17V],2.42
9,SNIHINVEESVDGQVVSSHKREI [F3I],2.77
10,SNFRINVEESVDGQVVSSHKREI [H4R],1.6
11,SNFHINVEESVDGQVVSSHPREI [K20P],1.94
12,SNFHINVEESVDGQVHSSHKREI [V16H],1.2
13,SNFHINVEESVDGQVVLSHKREI [S17L],2.06
14,SNFHINVEESVDGQVVKSHKREI [S17K],1.82
15,SNFHINVERSVDGQVVSSHKREI [E9R],1.89
16,SNFHINVENSVDGQVVSSHKREI [E9N],1.95
17,SNFHINVEESVDGQVVSSHKRDI [E22D],4.97
18,SNFHKNVEESVDGQVVSSHKREI [I5K],2.14
19,SNFHINVEESVDGPVVSSHKREI [Q14P],2.34
20,SNFHINVEESVDGQVVSSHKREQ [I23Q],4.43
21,SNYHINVEESVDGQVVSSHKREI [F3Y],1.61
22,SNFHINVEESVDGQVVSSQKREI [H19Q],2.88
23,SNFKINVEESVDGQVVSSHKREI [H4K],1.94

row,Variant,protein stability index
1,SNFHINVEESVDGQVCSSHKREI [V16C],2.25
2,SIFHINVEESVDGQVVSSHKREI [N2I],2.85
3,SNFHINVEESVVGQVVSSHKREI [D12V],2.65
4,SNFHINVEESFDGQVVSSHKREI [V11F],3.87
5,SNFHINVEASVDGQVVSSHKREI [E9A],2.02
6,SNFFINVEESVDGQVVSSHKREI [H4F],1.49
7,MNFHINVEESVDGQVVSSHKREI [S1M],1.31
8,SNFHIYVEESVDGQVVSSHKREI [N6Y],1.06
9,SNFHYNVEESVDGQVVSSHKREI [I5Y],1.24
10,SNFHINVEESVDGQVVSSHKRES [I23S],3.79
11,SNFHINVEESVDGQVVSSHRREI [K20R],3.06
12,SDFHINVEESVDGQVVSSHKREI [N2D],1.78
13,SNFTINVEESVDGQVVSSHKREI [H4T],1.43
14,SNFNINVEESVDGQVVSSHKREI [H4N],2.09
15,SNFHINVEESCDGQVVSSHKREI [V11C],2.69
16,SNFHINVEESVNGQVVSSHKREI [D12N],1.82
17,SNFHIKVEESVDGQVVSSHKREI [N6K],1.78
18,NNFHINVEESVDGQVVSSHKREI [S1N],2.03
19,SNFHINVEEPVDGQVVSSHKREI [S10P],1.91
20,SNFHINVEESVDGQVNSSHKREI [V16N],2.46
21,SNFHINVEESVDGQVFSSHKREI [V16F],2.63
22,SNFHINVEESRDGQVVSSHKREI [V11R],1.46
23,QNFHINVEESVDGQVVSSHKREI [S1Q],1.92

row,Variant,protein stability index
1,SNFHINVEESVDGQVVSSLKREI [H19L],2.08
2,SNFHMNVEESVDGQVVSSHKREI [I5M],2.59
3,SNFHINVEESVDGIVVSSHKREI [Q14I],1.55
4,SNFHINVEESVDGQVVNSHKREI [S17N],1.91
5,SNFHINGEESVDGQVVSSHKREI [V7G],3.08
6,SNFHINYEESVDGQVVSSHKREI [V7Y],1.36
7,SNNHINVEESVDGQVVSSHKREI [F3N],2.78
8,SNFHINVEESVDGQVVSSHKRNI [E22N],4.82
9,SNFHINVEESVDGQVDSSHKREI [V16D],2.86
10,SNFHINVEESVDGQVVSYHKREI [S18Y],3.37
11,SNFDINVEESVDGQVVSSHKREI [H4D],2.63
12,SNFHINVEESVDYQVVSSHKREI [G13Y],2.59
13,SNFHIHVEESVDGQVVSSHKREI [N6H],2.28
14,SNFHINVEESVDGQVVHSHKREI [S17H],2.17
15,SNFHINVEESVDGQTVSSHKREI [V15T],2.31
16,SNFHINVEESVDGQVVSSHLREI [K20L],1.39
17,SNFHILVEESVDGQVVSSHKREI [N6L],2.23
18,SWFHINVEESVDGQVVSSHKREI [N2W],2.14
19,SNFHINVQESVDGQVVSSHKREI [E8Q],1.59
20,SNFHDNVEESVDGQVVSSHKREI [I5D],3.64
21,SNFHINVEESVDGQVVSSHKRPI [E22P],4.74
22,SNFHINWEESVDGQVVSSHKREI [V7W],2.64
23,SNFHINVEESVDGQVKSSHKREI [V16K],2.2

row,Variant,protein stability index
1,SNFHINVEESPDGQVVSSHKREI [V11P],2.33
2,STFHINVEESVDGQVVSSHKREI [N2T],1.9
3,SNFHINVEESVDGQVVWSHKREI [S17W],4.29
4,SNFHINVEESVDGQVVSSHYREI [K20Y],2.18
5,SNFHINVEESVDGQVVTSHKREI [S17T],2.5
6,SVFHINVEESVDGQVVSSHKREI [N2V],1.71
7,SNFHINVEESVDGQVVSSHGREI [K20G],3.06
8,SNFHINVEESVDGQVVSSHKRET [I23T],4.32
9,SNFHINNEESVDGQVVSSHKREI [V7N],2.1
10,VNFHINVEESVDGQVVSSHKREI [S1V],1.78
11,SNFHINVEESVDGQQVSSHKREI [V15Q],2.78
12,SNFHRNVEESVDGQVVSSHKREI [I5R],2.67
13,SNFHINVCESVDGQVVSSHKREI [E8C],2.07
14,SNFHINVEESVDGQVVSPHKREI [S18P],3.1
15,SNFHINVEESVDGQVVSSHKRLI [E22L],4.53
16,SGFHINVEESVDGQVVSSHKREI [N2G],1.87
17,SNFHINVEESVDGQVVSSHKRMI [E22M],4.05
18,SNFHINVEESVDGKVVSSHKREI [Q14K],2.35
19,GNFHINVEESVDGQVVSSHKREI [S1G],1.39
20,WNFHINVEESVDGQVVSSHKREI [S1W],2.31
21,SNFHINVEESVDGQCVSSHKREI [V15C],1.48
22,SNFHINVEESVDGQVVSSYKREI [H19Y],3.48
